Each block holds one molecule with its values, some of them ahead of it.
Columns and labels:
[1] = system: hVDAC1-shRNA-T-REx-293 cells; experiment: Apoptosis induced by various stimuli in cells expressing native or truncated mVDAC1; type: cell-based, human; settings: for cell death in cells expressing native mVDAC1: hVDAC1-shRNA-T-REx-293 cells expressing mVDAC1
Method: (§1) Apoptotic cell death was analyzed by Acridine Orange/Ethidium Bromide staining.
(§2) T-REx-293 cells correspond to a transformed primary human embryonal kidney cell line, expressing the tetracycline repressor. hVDAC1-shRNA T-REx-293 cells stably expressing the pSUPERretro plasmid encoding shRNA targeting hVDAC1 were obtained and grown as described previously (Abu-Hamad et al. (2006), supra). […] Cell viability was analyzed by staining with acridine orange and ethidium bromide in PBS (Zaid et al. (2005). Cell death and differentiation, 12, 751-760). Images were recorded using Zeiss LSM510 confocal or Olympus IX51 fluorescence microscopes. Mitochondria preparation and measurements of ATP levels and Ca^+ accumulation were carried out as previously described (Abu-Hamad et al. (2006), supra).

HK-I [2] = biological target: T1, HK-I (Rattus norvegicus, UniProt P05708); experiment: Real time surface plasmon resonance, immobilized HK-I; type: binding; settings: SPR, increasing peptide concentrations
T1 construct: Purified rat brain HK-I; from tissue; host or cells: rat brain
T1 sequence (P05708 1-918): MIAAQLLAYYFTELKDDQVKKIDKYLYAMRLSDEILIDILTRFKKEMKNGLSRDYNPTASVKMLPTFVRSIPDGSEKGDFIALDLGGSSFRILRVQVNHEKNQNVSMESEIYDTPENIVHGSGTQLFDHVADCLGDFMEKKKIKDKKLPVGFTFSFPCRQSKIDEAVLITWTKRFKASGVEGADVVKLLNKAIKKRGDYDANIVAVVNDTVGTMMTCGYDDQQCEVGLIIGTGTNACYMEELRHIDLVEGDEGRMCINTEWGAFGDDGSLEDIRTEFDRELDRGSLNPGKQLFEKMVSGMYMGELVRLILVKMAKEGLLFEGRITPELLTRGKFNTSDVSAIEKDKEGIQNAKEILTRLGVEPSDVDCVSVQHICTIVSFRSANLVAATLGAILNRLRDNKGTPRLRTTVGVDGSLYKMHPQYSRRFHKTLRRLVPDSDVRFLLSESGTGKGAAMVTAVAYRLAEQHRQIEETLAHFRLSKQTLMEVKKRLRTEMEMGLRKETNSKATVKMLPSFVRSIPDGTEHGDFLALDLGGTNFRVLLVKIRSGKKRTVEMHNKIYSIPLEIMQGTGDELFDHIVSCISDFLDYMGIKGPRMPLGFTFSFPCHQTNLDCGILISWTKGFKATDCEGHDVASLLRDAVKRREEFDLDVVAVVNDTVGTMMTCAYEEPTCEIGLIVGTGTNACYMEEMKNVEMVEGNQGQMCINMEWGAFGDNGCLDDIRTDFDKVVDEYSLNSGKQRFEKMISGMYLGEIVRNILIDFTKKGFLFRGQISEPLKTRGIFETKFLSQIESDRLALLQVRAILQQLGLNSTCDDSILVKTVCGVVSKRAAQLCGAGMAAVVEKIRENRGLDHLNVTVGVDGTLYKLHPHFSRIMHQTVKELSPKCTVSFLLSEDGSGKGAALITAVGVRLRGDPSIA
Method: (§3) Surface plasmon resonance (SPR) using the ProteOn-XPR36 (Bio-Rad, USA) system was employed to study the interaction of VDAC1 N-terminal peptides with purified HK-I and Bcl2. Purified rat brain HK-I, recombinant Bcl2 and rabbit IgG were immobilized on a CM5 sensor surface according to the manufacture's instructions. N-terminal VDAC1 peptides were diluted in running buffer (150 mM NaCl, 0.005% Tween-20, 4% (V/V) DMSO, 10 mM PBS, pH, 7.4) and injected onto the sensor chip at varying concentrations at a flow rate of 40 μl/min at 25° C.

Bcl2 = Bcl2 (Homo sapiens, UniProt P10415); experiment: Real time surface plasmon resonance, immobilized Bcl2; type: binding; settings: SPR, increasing peptide concentrations
Bcl2, sequence (P10415 whole entry, species assumed): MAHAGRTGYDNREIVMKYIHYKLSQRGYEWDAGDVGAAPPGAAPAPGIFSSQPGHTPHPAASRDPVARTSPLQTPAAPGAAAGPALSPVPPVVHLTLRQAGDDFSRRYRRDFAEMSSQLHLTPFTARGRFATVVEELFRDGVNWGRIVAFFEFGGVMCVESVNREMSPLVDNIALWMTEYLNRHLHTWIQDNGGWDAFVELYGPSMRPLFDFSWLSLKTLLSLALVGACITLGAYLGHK
Method: as §3

IgG = experiment: Real time surface plasmon resonance, immobilized IgG (control); type: binding, rabbit; settings: SPR control
Method: as §3

[3] = system: hVDAC1-shRNA-T-REx-293 cells; experiment: Restoration of cell growth in T-REx-293 cells silenced for hVDAC1; type: cell-based, human; settings: expression under tetracycline control; Trypan-Blue counting
Method: as §2

[4] = Channel conductance of purified VDAC reconstituted into planar lipid bilayer; type: biochemical
Method: (§4) Briefly, PLB were prepared from soybean asolectin dissolved in n-decane (50 mg/ml) in a chamber containing 10 mM Hepes/KOH, pH 7.4 and 0.5 or 1M NaCl (cis/trans). Only PLBs with a resistance greater than 100 GΩ were used. Purified VDAC (about 1 ng) was added to the chamber defined as the cis side. After insertion of one or more channels into the PLB, excess protein was removed by perfusion of the cis chamber with 20 volumes of a same solution. Currents were recorded under voltage-clamp mode using a Bilayer Clamp amplifier (Warner Instruments, Hamden, Conn.). Currents were measured with respect to the trans side of the membrane (ground). The currents were low-pass filtered at 1 kHz, using a Bessal filter (Frequency Devices, Haverhill, Mass.) and digitized on-line using a Digidata 1200 interface board and pCLAMP 6 software (Axon Instruments). Sigma Plot 2000 scientific software was used for data analyses. Experiments were performed at 23-25° C.

[5] = system: T-REx-293 cells silenced for hVDAC1 expression; experiment: Cell death triggered by tetracycline-induced over-expression; type: cell-based, human; settings: over-expression induced by 2.5 μg/ml tetracycline
Method: as §1, §2

[6] = system: hVDAC1-shRNA T-REx-293 cells; experiment: Cytochrome c release induced by staurosporine (STS); type: cell-based, human; settings: STS (1.25 μM) for 5 h; Western blotting
HK-I [7] = biological target: T1, HK-I; experiment: Effect of HK-I on channel activity of bilayer-reconstituted VDAC1; type: biochemical; settings: HK-I (28 mU/ml), voltage step 0 to +40 mV
Method: as §4

Molecule: O=[As]O[As]=O (stereo not shown) [As2O3]
cell death in cells expressing native mVDAC1 [1]: induced death

Molecule: CN[C@@H]1C[C@H]2O[C@@](C)([C@@H]1OC)n1c3ccccc3c3c4c(c5c6ccccc6n2c5c31)C(=O)NC4 [Staurosporine]
cell death in cells expressing native mVDAC1 [1]: induced death

Molecule: COc1cc(/C=C/C(=O)CC(=O)/C=C/c2ccc(O)c(OC)c2)ccc1O [curcumin]
cell death in cells expressing native mVDAC1 [1]: induced death

Molecule: LP3: VDAC1-based peptide representing a loop (E157 to T174, 18 amino acids) predicted to face the intermembranal space (ETAKSRVTQSNFAVGYKT)
binding to immobilized HK-I (HK-I [2]): did not interact
binding to immobilized Bcl2 (Bcl2): did not interact

Second part, led by results:

binding to immobilized HK-I (HK-I [2]): strongly bound
binding to immobilized Bcl2 (Bcl2): strongly bound
binding to IgG-immobilized chip (IgG): no signal
Molecule: VDAC1 N-terminal peptide: a peptide corresponding to the N-terminal region of VDAC1 (MAVPPTYADLGKSARDVFTKGYGFGL)

effect of HK-I on channel activity (HK-I [7]): no effect
B1: Δ(1-26)mVDAC1: N-terminal truncated mouse VDAC1 polypeptide lacking amino acids 1-26 (protein)
chain: IKLDLKTKSENGLEFTSSGSANTETTKVNGSLETKYRWTEYGLTFTEKWNTDNTLGTEITVEDQLARGLKLTFDSSFSPNTGKKNAKIKTGYKREHINLGCDVDFDIAGPSIRGALVLGYEGWLAGYQMNFETSKSRVTQSNFAVGYKTDEFQLHTNVNDGTEFGGSIYQKVNKKLETAVNLAWTAGNSNTRFGIAAKYQVDPDACFSAKVNNSSLIGLGYTQTLKPGIKLTLSALLDGKNVNAGGHKLGLGLEFQA
cell growth in cells silenced for hVDAC1 [3]: restored cell growth
maximal conductance ([4]; at 1M NaCl): 4 nS
voltage dependence of conductance ([4]; planar lipid bilayer, FIG. 4): no voltage dependence
cell death on over-expression [5]: continue to grow over 8 days
apoptotic cell death ([5]; over 8 days): 5-8%
sensitivity of expressing cells to induced apoptosis ([1]; curcumin (100 μM), As2O3 (60 μM) or STS (1.25 μM)): resistant
cytochrome c release into the cytosol [6]: no cytochrome c release

Reference: US8440788B2, “N-terminal VDAC variants and uses thereof” (Ben-Gurion University of The Negev Research and Development …, priority 2006, dated 2013)
